B1: 2A-V743I*: KDM4A mutation (protein, UniProt O75164 2-1064, looked up, variant V743I)
Lysine-specific demethylase 4A: ASESETLNPSARIMTFYPTMEEFRNFSRYIAYIESQGAHRAGLAKVVPPKEWKPRASYDDIDDLVIPAPIQQLVTGQSGLFTQYNIQKKAMTVREFRKIANSDKYCTPRYSEFEELERKYWKNLTFNPPIYGADVNGTLYEKHVDEWNIGRLRTILDLVEKESGITIEGVNTPYLYFGMWKTSFAWHTEDMDLYSINYLHFGEPKSWYSVPPEHGKRLERLAKGFFPGSAQSCEAFLRHKMTLISPLMLKKYGIPFDKVTQEAGEFMITFPYGYHAGFNHGFNCAESTNFATRRWIEYGKQAVLCSCRKDMVKISMDVFVRKFQPERYKLWKAGKDNTVIDHTLPTPEAAEFLKESELPPRAGNEEECPEEDMEGVEDGEEGDLKTSLAKHRIGTKRHRVCLEIPQEVSQSELFPKEDLSSEQYEMTECPAALAPVRPTHSSVRQVEDGLTFPDYSDSTEVKFEELKNVKLEEEDEEEEQAAAALDLSVNPASVGGRLVFSGSKKKSSSSLGSGSSRDSISSDSETSEPLSCRAQGQTGVLTVHSYAKGDGRVTVGEPCTRKKGSAARSFSERELAEVADEYMFSLEENKKSKGRRQPLSKLPRHHPLVLQECVSDDETSEQLTPEEEAEETEAWAKPLSQLWQNRPPNFEAEKEFNETMAQQAPHCAVCMIFQTYHQVEFGGFNQNCGNASDLAPQKQRTKPLIPEMCFTSTGCSTDINLSTPYLEEDGTSILVSCKKCSIRVHASCYGVPPAKASEDWMCSRCSANALEEDCCLCSLRGGALQRANDDRWVHVSCAVAILEARFVNIAERSPVDVSKIPLPRFKLKCIFCKKRRKRTAGCCVQCSHGRCPTAFHVSCAQAAGVMMQPDDWPFVVFITCFRHKIPNLERAKGALQSITAGQKVISKHKNGRFYQCEVVRLTTETFYEVNFDDGSFSDNLYPEDIVSQDCLQFGPPAEGEVVQVRWTDGQVYGAKFVASHPIQMYQVEFEDGSQLVVKRDDVYTLDEELPKRVKSRLSVASDMRFNEIFTEKEVKQEKKRQRVINSRYREDYIEPALYRAIME
B2: 2A-T289I: KDM4A mutation (protein)
chain: MASESETLNPSARIMTFYPTMEEFRNFSRYIAYIESQGAHRAGLAKVVPPKEWKPRASYDDIDDLVIPAPIQQLVTGQSGLFTQYNIQKKAMTVREFRKIANSDKYCTPRYSEFEELERKYWKNLTFNPPIYGADVNGTLYEKHVDEWNIGRLRTILDLVEKESGITIEGVNTPYLYFGMWKTSFAWHTEDMDLYSINYLHFGEPKSWYSVPPEHGKRLERLAKGFFPGSAQSCEAFLRHKMTLISPLMLKKYGIPFDKVTQEAGEFMITFPYGYHAGFNHGFNCAESINFATRRWIEYGKQAVLCSCRKDMVKISMDVFVRKFQPERYKLWKAGKDNTVIDHTLPTPEAAEFLKESELPPRAGNEEECPEEDMEGVEDGEEGDLKTSLAKHRIGTKRHRVCLEIPQEVSQSELFPKEDLSSEQYEMTECPAALAPVRPTHSSVRQVEDGLTFPDYSDSTEVKFEELKNVKLEEEDEEEEQAAAALDLSVNPASVGGRLVFSGSKKKSSSSLGSGSSRDSISSDSETSEPLSCRAQGQTGVLTVHSYAKGDGRVTVGEPCTRKKGSAARSFSERELAEVADEYMFSLEENKKSKGRRQPLSKLPRHHPLVLQECVSDDETSEQLTPEEEAEETEAWAKPLSQLWQNRPPNFEAEKEFNETMAQQAPHCAVCMIFQTYHQVEFGGFNQNCGNASDLAPQKQRTKPLIPEMCFTSTGCSTDINLSTPYLEEDGTSILVSCKKCSVRVHASCYGVPPAKASEDWMCSRCSANALEEDCCLCSLRGGALQRANDDRWVHVSCAVAILEARFVNIAERSPVDVSKIPLPRFKLKCIFCKKRRKRTAGCCVQCSHGRCPTAFHVSCAQAAGVMMQPDDWPFVVFITCFRHKIPNLERAKGALQSITAGQKVISKHKNGRFYQCEVVRLTTETFYEVNFDDGSFSDNLYPEDIVSQDCLQFGPPAEGEVVQVRWTDGQVYGAKFVASHPIQMYQVEFEDGSQLVVKRDDVYTLDEELPKRVKSRLSVASDMRFNEIFTEKEVKQEKKRQRVINSRYREDYIEPALYRAIME
B3: 2A-V490M: KDM4A mutation (protein)
chain: B2 chain with I289T, V490M
B4: 2A-R400Q: KDM4A mutation (protein)
chain: B2 chain with I289T, R400Q
B5: 2A-R765Q: KDM4A mutation (protein)
chain: B2 chain with I289T, R765Q
B6: 2A-V319M: KDM4A mutation (protein)
chain: B2 chain with I289T, V319M
B7: 2A-G376V: KDM4A mutation (protein)
chain: B2 chain with I289T, G376V
B8: 2A-D524V: KDM4A mutation (protein)
chain: B2 chain with I289T, D524V
B9: 2A-E368K: KDM4A mutation (protein)
chain: B2 chain with I289T, E368K
B10: 2A-P348L: KDM4A mutation (protein)
chain: B2 chain with I289T, P348L
B11: 2A-E558Q: KDM4A mutation (protein)
chain: B2 chain with I289T, E558Q
B12: 2A-E426K: KDM4A mutation (protein)
chain: B2 chain with I289T, E426K
B13: 2A-R498H: KDM4A mutation (protein)
chain: B2 chain with I289T, R498H
B14: 2A-P326T: KDM4A mutation (protein)
chain: B2 chain with I289T, P326T

Substitutions are numbered along the chain they refer to. Names and notes keep the numbering of the source.

The first series deals with H3K36me3. The series can be described thus: H3K36 demethylase activity of KDM4A variants in transfected cells (immunofluorescence). The class given is cell-based. Particulars: KDM4A mutations. Set-up: key: + indicates active; − indicates inactive; +/− indicates partial acitivty. The method, then: The indicated NHF-tagged KDM4A deletion constructs were transfected into RPE cells grown on coverslips in 10 cm dishes using X-tremeGENE 9™ DNA transfection reagent (Roche). H3K36me3 and subcellular localization were assayed by examining transfected cells (positive for HA staining; HA.11 Covance) following fixation in 3.7% PFA in PBS (Whetstine et al., 2006).
All immunofluorescence experiments were performed as in (Black et al., 2013). For the localization experiment a minimum of 50 cells were blinded and scored. For the catalytic activity, cells overexpressing a high level of KDM4A WT or SNP-A482 were analyzed in a non quantitative manner.
In the case of B1, the “H3k36 Demethylase Activity” value is “+”.
On the same count and under the same terms, the entry for B2 is “−”; for B3 it is “+”.
For the molecule B4, the “H3k36 Demethylase Activity” value was “+”.
The same measure, in the same setting: the entry for B5 is “−”; for B6 it is “+”.
On the same count and under the same terms, the entry for B7 is “+”; for B8 it is “+”; for B9 it is “+”.
Still for that read-out and setting: the entry for B10 is “+”; for B11 it is “+”.
B12: the “H3k36 Demethylase Activity” value is listed as “+”.
Same read-out and setting: the entry for B13 is “+”; for B14 it is “+”.

The next series concerns H3K9me3. The series can be described thus: H3K9 demethylase activity of KDM4 variants in transfected cells. The class given is cell-based. Set-up: key: + indicates active; − indicates inactive; +/− indicates partial acitivty. Particulars: KDM4A mutations.
Regarding B1, the “H3k9 Demethylase Activity” value is given as “+”.
The same measure, in the same setting: in the case of B2 it was “+/−”; in that of B3, “+”.
Turning to B4, the “H3k9 Demethylase Activity” value was “+”.
For B5, the “H3k9 Demethylase Activity” value is “−”.
On the same count and under the same terms, the entry for B6 is “+”; for B7 it is “+”; for B8 it is “+”.
The same measure, in the same setting: in the case of B9 it was “+”; in that of B10, “+”.
Regarding B11, the “H3k9 Demethylase Activity” value is recorded as “+”.
In the case of B12, the “H3k9 Demethylase Activity” value is “+”.
Turning to B13, the “H3k9 Demethylase Activity” value is listed as “+”.
In the case of B14, the “H3k9 Demethylase Activity” value was “+”.

The values are drawn from patent publication US20160113911A1, “METHODS AND COMPOSITIONS FOR THE TREATMENT OF CANCER” (THE GENERAL HOSPITAL CORPORATION, priority 2013, published 2016).
